Consider two substances from PMC11833078.

In test [1] the target is Prp19 (Chlamydomonas reinhardtii (endogenous)). Nature of the test: cryo-EM structure; endogenous spliceosomes (C* complex) isolated at 4 °C by the same procedure from the Cdc5L-Flag and the Prp19-Flag knock-in strains: anti-FLAG M2 resin (20 mM HEPES-KOH pH 7.9, 150 mM NaCl, 1.5 mM MgCl2, 4% glycerol), FLAG peptide elution, 10-30% glycerol gradient with 0-0.1% glutaraldehyde; two reconstructions at 2.6 Å without obvious differences, one atomic model.

Test [2] concerns the target Prp19-Flag (Chlamydomonas reinhardtii (endogenous)). The description is as above.

As usually defined, the stoichiometry N is the number of molecules, sites or subunits per partner or assembly.

Prp19 (natural protein) had a stoichiometry N in test [1] of 4.
With Prp19-Flag (natural protein), the stoichiometry N in test [2] came to 4.
